Results: the DeepSol protein solubility set

Experiment: soluble on expression in E. coli; label from the status in PepcDB or PDB records

| Sequence | soluble on expression in E. coli |
| --- | --- |
| MLNRIIEHMNAHHVEDMKGLLKKFGQVHHAENVAFKSVDPQGIVIGYNHNQTLRIEFNHEVKDPKDYKNAIIELCQSVEKTHDLKGVEEEVKAFKESFDSVCLATLHPNGHVVCSYAPLMSDGKQYYIYVSEVAEHFAGLKNNPHNVEVMFLEDESKAKSAILRKRLRYKTNARFIERGAEFDKAFDSFIEKTGGAGGIKTIRAMQDFHLIALDFKEGRFVKGFGQAYDILGDKIAYVGDKGNPHNFAHKK | not soluble |
| MKHSHEEIRKIIPEMRRVQQIHFIGIGGAGMSGIAEILLNEGYQISGSDIADGVVTQRLAQAGAKIYIGHAEEHIEGASVVVVSSAIKDDNPELVTSKQKRIPVIQRAQMLAEIMRFRHGIAVAGTHGKTTTTAMISMIYTQAKLDPTFVNGGLVKSAGKNAHLGASRYLIAEADESDASFLHLQPMVSVVTNMEPDHMDTYEGDFEKMKATYVKFLHNLPFYGLAVMCADDPVLMELVPKVGRQVITYGFSEQADYRIEDYEQTGFQGHYTVICPNNERINVLLNVPGKHNALNATAALAVAKEEGIANEAILEALADFQGAGRRFDQLGEFIRPNGKVRLVDDYGHHPTEVGVTIKAAREGWGDKRIVMIFQPHRYSRTRDLFDDFVQVLSQVDALIMLDVYAAGEAPIVGADSKSLCRSIRNLGKVDPILVSDTSQLGDVLDQIIQDGDLILAQGAGSVSKISRGLAESWKN | soluble |
| MDSGYWQSQFEDWLRHHHQEQDAAHDIFHFRRVWATAQTLGENSPVDWLVVLSACYFHDIVSLAKNHPQRHRSSILAAAETRRIFLRDFPDFPAEKLAGICHAIEAHSFSAKIAPTTPEAKIVQDADRLEALGAIGLARVFAVSGALGVALFDADDPFANRRPLNDKQFALDHFQTKLLKLPLTMQTERGKSLAQRNADFLVSYMAKLSAELKGDYETRDDAVIQMFATHQLEHHHHHH | soluble |
| MSKLFSEYKLKDVTLKNRIVMSPMCMYSVENKDGIATDFHFAHYVSRAAGGTGLVILEATAVQEVGRISEFDLGLWNDEQVPALKKLVGGLHYHGAKAGIQLAHAGRKAVLPGEIVAPSAIAFDEKSDKPVELTKEAIKEVVADFKRAAYRAKEAGFDVIEIHAAHGYLIHQFLSPITNRREDNYGGPAGNRYKILSDIIKAVKEVWDGPIIVRVSATDYAHGGLQLEDHIPFAKWMKADGVELIDVSTGGLVNVAPPVFPGYQVPFADEIRRGAGIATGALGLITRGEQAEEILCNERADLIIVGRELLRNPYFAKDAAKQLGETIEAPKQYSRAWK | not soluble |
| MEFLKLSEGKTKEVYAYDDSHVLLKFKDSITAGDGARKDILEGKGILNAQTSAFLFRLLESKGIETHYIGMFDERTMIAKKLKMIPVEVVLRNIATGSIVKRLPIKEGEVFEPPIIEFFLKDDERHDPMLNYYHMEYLKLMTRKEAEKIEEIMLKVNEILYPFFRSKKLLLYDFKLEFGRVNDKLIIGDELTLDSMRIREEGSGRILDKDLYRKGADLETVKKAYEEFFKRISE | soluble |
| MVSVARELTVGINGFGRIGRLVLRACMEKGVKVVAVNDPFIDPEYMVYMFKYDSTHGRYKGSVEFRNGQLVVDNHEISVYQCKEPKQIPWRAVGSPYVVESTGVYLSIQAASDHISAGAQRVVISAPSPDAPMFVMGVNENDYNPGSMNIVSNASCTTNCLAPLAKVIHERFGIVEGLMTTVHSYTATQKTVDGPSRKAWRDGRGAHQNIIPASTGAAKAVTKVIPELKGKLTGMAFRVPTPDVSVVDLTCRLAQPAPYSAIKEAVKAAAKGPMAGILAYTEDEVVSTDFLGDTHSSIFDAKAGIALNDNFVKLISWYDNEYGYSHRVVDLLRYMFSRDAENLYFQ | soluble |
| MNLDDIINSMTPEVYQRLSTAVELGKWPDGVALTEEQKENCLQLVMLWQARHNTEAQHMTIDTNGQMVMKSKQQLKEDFGISAKPIAMFK | not soluble |
| SNAMNNTQKKLKVLFIGESWHIHMIHSKGYDSFTSSKYEEGATWLLECLRKGGVDIDYMPAHTVQIAFPESIDELNRYDVIVISDIGSNTFLLQNETFYQLKIKPNALESIKEYVKNGGGLLMIGGYLSFMGIEAKANYKNTVLAEVLPVIMLDGDDRVEKPEGICAEAVSPEHPVVNGFSDYPVFLGYNQAVARDDADVVLTINNDPLLVFGEYQQGKTACFMSDCSPHWGTQQFMSWPFYTDLWVNTLQFIARK | soluble |
| MYTFKKGDADYQVMLNENFKEITDSFEDGLFVRKNSKILDLNDAILPGIYSIPATGVDNKPLPNSGSLFVCKDPGGVRQLFQTERTIFIRQLGGVPSSWTDWKKVAFEKEQPFEAWYSPGTNHAGFKNKARYNLGPEFSNIGQRLGLPMKSEPLEWNSGRWQAKVLRDCKLNISGTVKYHVGSSRGVLYAYTHIDKGLDEGVGDLGIGSAVGAVGGLDYKNVAAFDLNVTLKKGEYLAFRLELAADKQLDYTQLSSMHITELV | not soluble |
| MGVERIKAAFENGKKAFIPYVMGGDGGLEILKERIRFLDEAGASIVEIGIPFSDPVADGPTIQRAGKRALDSGVTVKGIFQALIEVRKEVQIPFVLMTYLNPVLAFGKERFIENCMEAGVDGIIVPDLPYEEQDIIAPLLREANIALIPLVTVTSPIERIKKITSESEGFVYAVTVAGVTGVRQNFKDEIHSYLEKVKSHTHLPVVAGFGISTKEHVEEMVTICDGVVVGSKVIELLENEKREEICEFIQATKQKEEA | not soluble |
| MGSDKIHHHHHHMQYNFKVEAFEGPLDLLLHLIHRYEIDIYNIPVAEITEQYLSYVHTMKELQLDVASEYLVMAATLLQIKSKMLLPKHEEDVLDNGDDFIDDPRQELMERLIEYKKYKQVATELKEREQERAQLYTRPPIDFTSLQQEEETSLPLDVTLYDMLAAFQKLMRRKKAKKPVTTRITRQEIPIEQRMTDILKQLEIQGGRQSFYDLFVDDEREIMVVTFLAVLELMKNQQIVIEQEHNFDEIFVSSYTKSA | not soluble |
| MSLSQAVSSPLYAAIDLGSNSFHMLVVRHIDGSVQTMAKIKRKVRLAAGLDEHNALSLDAMQRGWDCLSLFAERLQDIPAENIRIVGTATLRTATNAGEFIAKANQILGHPIDVISGEEEAATIYKGVAHTSGGLGRRLVVDIGGASTELIIGEGFEAKALTSLKMGCVTWLERHFKDRQLTATNFNNAILAAKQMLDPILTQYTELGWNVCVGASGTVQALQEIMLAQGMDEVITLTKLKRLQKQAMLADHLEELDIEGLTLERALVFPSGLSILIAIFESLNIEAMTLAGGALREGLVYEMVQDLRQEDIRARTIRCVQTRYQIDSAYGDQVATLASKLLAQCGGEAWINEPQAEMLLRTAAKLHEIGLTIDFKKGGEHSAYLLQHLDLPGYTRAQKHYLGEIVRRYREQLTSLPEQYALSGTSGKRVLRLLRLAVLLSHRRSPALEPMVELSAQEDKLTLTLDGEWLAKNPLTRTELELEANRQTDIGWPLSIECHEGGSHHHHHH | soluble |
| MHFELNQATHCKNHVVIHNELSPGIILNIACRKGSIDDKPTRFHKLNFKDPSYVIEFEDNYPNDETWYCLLSHGTRPKYWYDIQVYRQGIQPKCNQLRLWIARMDGIWFTRRYESPPGHVLDWKI | not soluble |
| MSRYNWNVPILEVLKEAVMVKKLNKIAVVGTPCVINAVYQMMATNNDLVEPFKKAIRLKISLFCFETFDYDKMLKKLKEVEVNPWDIKKMEIDKGKLIVSTIHGNVFNFKIDEMDEYVRKGCKVCRDFTGISSDISVGNVGTPEGYSTVLVRNKWGKGFFDRAVINGYVSVEGEASIDPVISLSKKKMERKDIEFLEHHHHHH | soluble |
| MSLRIALAGAGAFGEKHLDGLKNIDGVEITSIISRTGEQAAAVAAKYGAKHSSTELEDALARDDVDAVILCTPTQMHASQAIACMKAGKHVQVEIPLADSWADSQEVLRVQQETGKVCMVGHTRRFNPSHQFVHNRIKAGEFNVQQMDVQTYFFRRKNINAKGEPRSWTDHLLWHHAAHTVDLFAYQAGRIVKANAVEGPIHPELGIAMDMSIQLKSETGAICTLSLSFNNDGPLGTFFRYIGDTATYIARYDDLVNGKEEPIDVSKVDVSMNGIELQDREFVAAIREGREPNSSVQKVFDCYRVLGELEQQLAKGEGHHHHHH | soluble |
| MTTQNELLNRIAELETKVAFQDNVIEELNQVLIHHQFVLDKLQTQVRHFANKFKNIQSSNVASQAEETPPPHY | soluble |
| MGSDKIHHHHHHVRVLAIRHVEIEDLGMMEDIFREKNWSFDYLDTPKGEKLERPLEEYSLVVLLGGYMGAYEEEKYPFLKYEFQLIEEILKKEIPFLGICLGSQMLAKVLGASVYRGKNGEEIGWYFVEKVSDNKFFREFPDRLRVFQWHGDTFDLPRRATRVFTSEKYENQGFVYGKAVGLQFHIEVGARTMKRWIEAYKDELEKKKIDPRLLLETAEREEKVLKGLLRSLLERMVES | soluble |
| MGSDKIHHHHHHMAKDITLRQLRYFIAAARAGQFSMAATNEHVSQSAITNAVIALEQALGTKLFDRGAHGVTMTVDGHDFYHHARHVLDSVRDAMHKPRAGARATSGTVRIAASYAVLGYFLPELLARFRASFPAIELDLRDMDRAVIENAVLDGTIDLGVTLVSNTPRLDAFEHRILIRSRRQLWTAPSHPLAHAASMSLADIAMHPYILLTVDEGEASTTRYWQAKGMQPNIAFRTGSMEAVRGLVANGFGVTVLSDMLFRAWSLDGTRIDARPVVDSIPPMEVGLIWRPGAALAPAAQQLRHFLIQVNSGEAD | not soluble |
| MIDNPTPKSSMTFKELYDEWLLVYEKEVQNSTYYKTTRAFEKHVLPVIGSTKLSDFTPMELQNFRNDLSEKLKFARKLFGMVRKVFNHAALLSYIQANPALPVTSQGIKKKVEELEHHHHHH | soluble |
| MAGDPMTFLIIRQTHENVLSKETVVKKVEASYEGKVTKATQSKDKKTYDITLENPKGTYFVKADAISADILSMNRVKAVNPSAMTEKEAEHLALERVPGTVKKQTRQSQVATYTIQKEDGKTYEVKVDMQAKTVLSADQISSKDQQKTPITKKEAKTIAERKTGGTADDADLEESEGTLIFEVDVDLPDNKEATVKINAYTGKVANIVYEDLEHHHHHH | not soluble |
| DEEDANFMQRAFEMNDKVASDVMVDRTSMSVVDVDETIADALLLYLEEQYSRFPVTADNDKDKIIGYAYNYDIVRQARIDDKAKISTIMRDIVSVPENMKVPDVMEEMSAHRVPMAIVIDEYGGTSGIITDKDVYEELFGNLRDEQDDED | soluble |
| MGSDKIHHHHHHMKVQFLGAARTVTGSCYVVESGGVRFAVDCGMHQGNHEIEKRNYETDVYSPETIDFFLITHAHIDHTGLLPRMVRDGFTGPVYCTEPTRDLLEIMLQDSANIQEMEAEWQTRKQKRKGRKPVDPLYTFADAARVSRFFENVEYNRPFSPVEGVTVTYKDAGHILGSAFLEIEVCEHGRCSRLIFSGDLGKPNSLIVRDPEAAAAADYLFVESTYGDRNHKDESNSRQELAEAIAYSYRQGEKVIIPAFAVERTQEVLYTLFLLQKEGRMPVDMPIFLDSPLAIRATEIFRKHPRFFDEEMQKLLLSGEDPFAMPSLRLTTKTQESQAINNYTGPAVIISASGMCNAGRIKHHLRHNIWRPGASIVFVGYQAVGTPGRRIVDGARSIRLFGEEIAIQAKVFTIGGFSGHAGQSQILDWVGKFATKEMKVFLVHGEEKAQQALKAILEEKYELSVHSPGYLEEIELEPGEAVVTTGDPQRYQPQLNWDFLLSETEARMMQLRARKGDIEHADWAQQVEIRDRLLELNNEMLGILSEL | not soluble |
